{"source": "the DeepSol protein solubility set"}
{"experiment": "soluble on expression in E. coli; label from the status in PepcDB or PDB records"}
{"sequence": "MITLGFMSLSRQHEADYSAELAKRAPEFGIRFIRFTPFDISPDTLRVKASVYHSASSTWNETEMAIPDYIYDRCFYGKDSHSQKAKPIVEWLKKYPKTEFIGRGLPDKWTVLHDLQQHSVINPYIPETIKVSRYEQIHSFLSKEKACILKPAFGAGGRGVILLKLGKKNITATYHIGKDKQTKTFSNQTSFKTWCKKVLQHQYLLQPYLNIQDKEQYPCDIRLFMEKNEAGEWNTVGKAVRRGYKHGLLANLSGGSDALTFDSWFEDIPKKQQVVLLDDVFSITQSVPYYLDERYGPLFELGLDICLAKDGRIWILDINSKPGRKSILRVSPEQKEQLYTCPLKRCQYLFSEQSQKGVLPRES", "soluble on expression in E. coli": "not soluble"}
{"sequence": "MITQSSLLTYPLAGCLNRLANKSSQVKQRLQTHANETVCFRIDSLASLSVTITQDGHFTTAAKDTQAAVILDIAAELIPRIASGEMAAFDKIIICGDPELADTLLYMGKIFQAGIEENLSSVMGDVLARRATLTGQELVRWHLGSIRNLSRALGEFLSEEQPVTASRNRFHQLASEVESLQRRILRLEKRITALVPSFSSIAGNLPRTGR", "soluble on expression in E. coli": "not soluble"}
{"sequence": "MITSTNKEAYPNTLIVILGHDEGRSSFEEKEDVTRVTNDKGETIGFNFFNVDKLIDFDKLPNGPVKLSDDELEALNKKLAEVGFDDKLEYGKPTLVYGYVKTCEKHPDSDHLHVTTIEVGDGEEHQIVCGAPNIAQGQKVVVALPGTLMPNGAQIWPGKLRGVDSYGMICSARELGLPHAPQKRGIMVVPDSFEVGAEFEPTKCDELIASGEITLLEHHHHHH", "soluble on expression in E. coli": "soluble"}
{"sequence": "MIVRFAGRRGVVSTCNLNGGYREDLRYAFNNSCGRDPDVIAKRSVGMRGKTMIEHYAALAEELGLPLDKTTGMGTAALIENTATSSRQYHGVTVMAVATAGIDVNGGRAGEPAAYNEFTQTDLIKPGTINVFLFIDASLDAGTLTRALVTATEAKSAALQELMANSMYSEDLATGSGTDSLIAICNKESEIVLQNSGKHVLLGEMIGQSVKEAITEALSRQTKMTPTRQASIEWQTKRYGITREAIVSECLRLYPHLKKEVVEAGIGGIDRDNRLVAAVAAIAHLCDQNRWQIISDKSMTCTAENILHTILSERGISEEANRKDIVCGQDAPAYRQVLSLCLHTLARILHNRIIHSSL", "soluble on expression in E. coli": "not soluble"}
{"sequence": "MIYIGFYPKFNISGFSIGINTGVRFDVSSKLHYETSSASENINNEVKPRTYIRGTFDYSVFFKDNMAINVGLYIGYDWGFAWSDTYANADVVKNESFGNLDLGIQVGYRFGPKF", "soluble on expression in E. coli": "not soluble"}
{"sequence": "MKAFDIMKASQIACCFEVGSFKPGNVHKNRDYDDIKYHHFISSGIAFGDVIHQACLEKNNIGNFIKKGVIESKKWSPTNANLGIIMLHMPIAIAASNLDKFSESALKKETEKIIKNTTVQDAIDVYRAIEIALAFVNAPENGPDLKSKDAKDELIEKNLTLYDVFKISSTWDSISNEWTENFKISYKGYNLIKEYYEKYNNINIAVTKTFINLLSNYPDTLIARKKGIDVSKMVSEKAKEVLNNFNEESVLEFDKFLSKEGNKLNPGTTADLIASSLLIFLLDRISNEKTILY", "soluble on expression in E. coli": "not soluble"}
{"sequence": "MKAKITGEDDVRVGLHVTDNNGVKHKIEMEFNGEIKYHNQDGYPDKPKNRTPNGNAHVNQTCRYARYHVYQETEYTPLPPEENLPGIKKVKQAIADLSVKEFEAYFSDTYDQVLSNHPSVTPPVPHPESVPQNGYILYLIDVYLDDNDEIEAVSDIHLQYLDENGDKTQDWNDDPFPDRQPDARLQLFGKYVPSMDVFQEFVVYHLRCQLRDVYIGAGLEPPEKYRVLGRGDDDLTSRYHNDKVTIYDDYHLEEADIPGYELEFDYGFGELGKQSVINAKRKGIGAENPDDADSRLANPSQDGEEGLLETVSSVLRGSDTDQTET", "soluble on expression in E. coli": "not soluble"}
{"sequence": "MKALTLKVFYENSDPNKSSSKQAKYLAIADALRKAIRERQIAPTEALPSARKLAQQLSVNRHTIMAALAELVAQGWVEVRERSGYRVVENLPIQGSRTINKVAKTPQSFDWKFRVKQTFAVTPKVKASEYPYNFSGGQPDIRKFPFDEFKSHFSQTCQRPKIDDLSYGDSRGEAELIEEIATYLRRVRSITDKELMICNGSQEALYMISQLLLQPGDKVAVEQLGYPPAWAAFERTGATLIAVKQDERGINPEHLAQVFAKGKVKLLYLTPLHQYPTTVSLDISRRMQIYQLAVQYGVAIVEDDYDHEFHYDSQPIAPMAADDPAGLVIYISTFSKLMFGGARIGYVVANNALIEQVAAYKMVMNHKCNVLVQQAVAKWMQQGGFEAHLRRMTRLYQKRRDFMVQQLRSFQDKGLPIHFEVPAGGMAIWLDTGKSIIGLKEKLLPQQVYLQTEVEFSRFNELPDDLPRTKYRFIRLGFAAMNEAEVTQGLDIVMNTLYGLVSE", "soluble on expression in E. coli": "not soluble"}
{"sequence": "MKCRSKISLIAASLWLAAFSAQALEAKLKPEDLPLLVPEAQHATAAKRVTSRFTRSHYKQFNLDDQFSQAMFERYLEMLDYSRNIFTQADIDSFKAWSLQLDDQLKAGDNQIAYDLYNLSMEKRFERFQYALSLLDQEMTFDADESIELDRTKSPWPKDLKEINELWRQRVKYDALSLKLAGKEWPEIKETLDKRYNNAIKRLTQTKSEDVFQTYMNAFAREVDPHTSYLSPRNAEQFQSEMNLSLEGIGAVLQMTDDYTIIRSLVAGGPAALSKQLGEGDRIIGVGQEGEDVVDVVGWRLDDVVQLIKGPKGSKVKLLVLPEGKDAKSHVVTIVRDKIRLEDRAVKSEVIEKAGKKIGVLEVPSFYVGLAQDTEKLLAELKAKKVDGIIVDLRNNGGGALTEATALSGLFITSGPVVQVRDSYGRVNVNSDTDGSISYSGPMTVLINRYSASASEIFAAAMQDYGRAIILGENSFGKGTVQQHRSLNHIYDLFDKELGYVQYTIQKFYRIDGGSTQNKGVVPDIAYPTAIAPSETGESVEDNALPWDSIDKAKYERLNNFNTIIASLEAKHQQRVANDLEFGFIEQDIAKYRAEKDDNLLSLNEKVRKEESAKADEERLARINQRQKALGKSTYASLQDIPKDYEAPDAYLDESVNIMLDMISR", "soluble on expression in E. coli": "not soluble"}
{"sequence": "MKDTTRNTYLAVDFGGGSGRVIAGSLLQGKLELEEIHRFTNRQVKLGNHVYWDFPALFEDMKTGLKLAAQKGYHVKGIGIDTWGVDFGLIDKKGNLLGNPVCYRDARTDGMPDKVFQILDAQKHYACTGIQVMPINTLFQLYSMQQNQDVLLEVAQRLLFMPDLFSYYLTGVANNEYCIASTSELLDARQRNWSMDTIRALGLPEHLFGEIILPGTVRGTLKEEIGRETGLGPVDIIAVGSHDTASAVAAVPATEGQVAFLSSGTWSLLGVEVDEPILTEEARLAQFTNEGGVGGHIRFLQNITGLWILQRLMSEWKLRGEEQSYDTILPQAADAEIDTIIPVDDAEFMNPENMETALLNYCRNHSLKVPGNKAEMVKCVLQSLAFKYREAVAQLNRCLPSPIHRLNIIGGGSQNKLLNQLTANALGIPVYAGPVEATAMGNILTQAMAKGEISSLREIREVVSHSVTPQVYYPEK", "soluble on expression in E. coli": "not soluble"}
{"sequence": "MKEANLLIDLRGEPGINCNGFCKFCYFRKVNKNNPQPFGCRYCQFTVGCDYCMYSVREINGDFIPLPFALMELQSSLLFKRYSKVNLTAGGDVSCYPQLEELCKAINNIGLKIHLGYTSGKGFDNVEIAKNLVDYGVDEVTFSVFSTNPKLRKEWMNDKNAETALKCLRYFCENCEVHCAIIVIPGVNDGEELKKTVSDLVDWGANAVILMRFANSEEQGLILGNAPLIEGIKPHSVEEFKNIVDEIHNEFGDYIRVTGTPLHDPVAGTPFALAKEENSHILERLKDKINGEATIITGNVAYPFLKKIFDETSVNVVKVNKDIADLITAKDLEKLDLKDVKETVFIPPKAFVHDRVAEEILRRDGVDRIVVRGVEQLTLDGEVSGIYTREEALKFEIEAFEELIGMINFFGMKKQ", "soluble on expression in E. coli": "not soluble"}
{"sequence": "MKEEKLVTLAIHSYEKAQILKSLLETEGIEAYLHNVNQIQPVISAGVRVRIKETDLPRALSIIEDNKWDQEDPKKRAKNTEEYVLIPVDFSEYTMKICELGFNFAARRGLRVVLMHVYISPFFSTPLTVGDTAVFQLSNEVSLRKEYQRVQR", "soluble on expression in E. coli": "not soluble"}
{"sequence": "MKEENVGDFTLHYGVFEEVEPEELRNLADMLRQRTKKDVVFIASRKGDKINFVIGVSKEISDKVNAKEVIREVGKVLKGGGGGRADLAQGGGKAPDKFPEAVKLLKEILSG", "soluble on expression in E. coli": "soluble"}
{"sequence": "MKEKIPFYNEKEFHYMMKKTKKGTFSGWYIINPENNSVEFSGSFNRQFKLNKPVIPVNTEYVTRKEFNEYKDSNDQRLTKIENKVDKLEIKVDKLEKKVDKLEVKVDKLVETVNAQGEDLNNFKVEVRGTLQSQGETLQLILQTLQGMSKRLDSVEGRLDSMDGRLDSMETRLDKIDPLKLEHHHHHH", "soluble on expression in E. coli": "not soluble"}
